Measured values as given in US20120100140A1.
Where a chain is given by its changes, count along the chain named. Names and notes keep the numbering of the source. Values belong to the binder of their own block, whether it stands above or below them.

How the values were obtained:
[1] = target: CD64 (FcγRI) (UniProt P12314); test: solution affinity SPR: antibody titrated into CD64, inhibition of CD64 binding to immobilized IgG1 MAb; average of two titrations
[2] = target: CD64 (FcγRI) (UniProt P12314); test: solution affinity SPR: inhibition of CD64 binding to immobilized IgG1 MAb
[3] = target: CD16 (FcγRIIIa V158) (UniProt P08637); test: solution affinity SPR: antibody titrated into CD16, inhibition of CD16 binding to immobilized IgG1 MAb; average of two titrations
CD16 (FcγRIIIa V158), sequence (P08637 17-208 F176V limits assumed): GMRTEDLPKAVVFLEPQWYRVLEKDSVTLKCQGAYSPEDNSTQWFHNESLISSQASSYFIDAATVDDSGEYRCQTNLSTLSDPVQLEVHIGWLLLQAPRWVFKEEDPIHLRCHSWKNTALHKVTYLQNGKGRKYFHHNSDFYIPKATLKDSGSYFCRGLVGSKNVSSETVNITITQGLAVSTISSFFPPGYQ

CD64 (FcγRI), sequence (P12314 16-288 limits assumed): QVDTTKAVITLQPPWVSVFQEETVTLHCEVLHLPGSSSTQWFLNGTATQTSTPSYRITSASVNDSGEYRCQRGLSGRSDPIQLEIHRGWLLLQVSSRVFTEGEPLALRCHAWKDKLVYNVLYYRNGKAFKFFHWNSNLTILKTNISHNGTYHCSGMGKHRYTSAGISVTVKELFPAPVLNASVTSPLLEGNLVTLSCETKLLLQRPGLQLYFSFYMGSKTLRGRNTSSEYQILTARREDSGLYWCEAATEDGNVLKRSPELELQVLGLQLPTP

B3: EC326 (hu5c8 IgG4.P S228P, T307P, L309K, D399S, glycosylated) (antibody)
heavy: QVQLVQSGAEVVKPGASVKLSCKASGYIFTSYYMYWVKQAPGQGLEWIGEINPSNGDTNFNEKFKSKATLTVDKSASTAYMELSSLRSEDTAVYYCTRSDGRNDMDSWGQGTLVTVSSASTKGPSVFPLAPCSRSTSESTAALGCLVKDYFPEPVTVSWNSGALTSGVHTFPAVLQSSGLYSLSSVVTVPSSSLGTKTYTCNVDHKPSNTKVDKRVESKYGPPCPPCPAPEFLGGPSVFLFPPKPKDTLMISRTPEVTCVVVDVSQEDPEVQFNWYVDGVEVHNAKTKPREEQFNSTYRVVSVLPVKHQDWLNGKEYKCKVSNKGLPSSIEKTISKAKGQPREPQVYTLPPSQEEMTKNQVSLTCLVKGFYPSDIAVEWESNGQPENNYKTTPPVLSSDGSFFLYSRLTVDKSRWQEGNVFSCSVMHEALHNHYTQKSLSLSLG
light: DIVLTQSPATLSVSPGERATISCRASQRVSSSTYSYMHWYQQKPGQPPKLLIKYASNLESGVPARFSGSGSGTDFTLTISSVEPEDFATYYCQHSWEIPPTFGGGTKLEIKRTVAAPSVFIFPPSDEQLKSGTASVVCLLNNFYPREAKVQWKVDNALQSGNSQESVTEQDSKDSTYSLSSTLTLSKADYEKHKVYACEVTHQGLSSPVTKSFNRGEC
modifications: heavy chain pos 1: Gln largely converted to pyroglutamate (Table 3.3), written Q; N-linked glycan (G0F, G1F, G2F, G0) at EU N297 = heavy chain pos 295
IC50 [2]: 8 µM
IC50 [3]: 380 µM
IC50 [1]: 7.56 µM

B4: EC331 (hu5c8 aglycosylated IgG4.P T299K, T307P with IgG1 CH3) (antibody)
heavy: B3 heavy with T297K, K307L, Q353R, E354D, M356L, S397D, R407K, E417Q, L443P
light: B3 light
modifications: chain 1 pos 1: N-terminal Gln largely converted to pyroglutamate, written Q; Fc aglycosylated
IC50 [1]: 2600 µM

Continued, values first:

IC50 [1]: 434 µM
B1: YC403 (hu5c8 aglycosylated IgG4.P S228P, T299A, T307P, L309K, D399S) (antibody)
heavy: B3 heavy with T297A
light: B3 light
modifications: chain 1 pos 1: N-terminal Gln largely converted to pyroglutamate, written Q; Fc aglycosylated

IC50 [1]: 377 µM
B2: YC401 (hu5c8 aglycosylated IgG4.P S228P, T299A, T307P, D399S) (antibody)
heavy: B3 heavy with T297A, K307L
light: B3 light
modifications: chain 1 pos 1: N-terminal Gln largely converted to pyroglutamate, written Q; Fc aglycosylated
